Data on two substances can be found in PMC4365481.

The IC50 is the concentration needed to halve the response being measured. A higher IC50 goes with weaker potency.

One test deals with GST-α-actinin R1. The test can be described thus: ELISA. Conditions: ICAM-5 cytoplasmic domains coated on plates and incubated with GST-α-actinin rod domains; values normalized to the level of BSA binding; parent: est. 0.10; read off a plot.
Test [1] concerns the target GST-α-actinin R1-R4 (the whole rod domain) (UniProt P05094). The test can be described thus: ELISA. The conditions noted are these: ICAM-5 cytoplasmic domains coated on plates and incubated with GST-α-actinin rod domains; values normalized to the level of BSA binding; parent: est. 0.28; read off a plot.
UniProt P05094, sequence (P05094 387-510): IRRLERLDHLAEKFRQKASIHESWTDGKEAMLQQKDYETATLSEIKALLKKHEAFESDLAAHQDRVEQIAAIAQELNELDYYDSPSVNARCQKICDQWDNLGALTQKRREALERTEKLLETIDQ
The target in the next test is GST-α-actinin R3. Nature of the test: ELISA. The conditions noted are these: ICAM-5 cytoplasmic domains coated on plates and incubated with GST-α-actinin rod domains; values normalized to the level of BSA binding; parent: est. 0.072; read off a plot.
The target of a further test is GST-α-actinin R4 (UniProt P05094). Nature of the test: ELISA. The conditions noted are these: ICAM-5 cytoplasmic domains coated on plates and incubated with GST-α-actinin rod domains; values normalized to the level of BSA binding; parent: est. 0.020; read off a plot.
For test [2], the target named is GST-α-actinin R2 (UniProt P05094). Nature of the test: ELISA. The conditions noted are these: ICAM-5 cytoplasmic domains coated on plates and incubated with GST-α-actinin rod domains; values normalized to the level of BSA binding; parent: est. 0.22; read off a plot. For orientation: An ELISA detects its analyte on a solid surface through an enzyme-linked reagent.
Test [3] has the same target. The test can be described thus: pull-down; competition: 2 µg GST-α-actinin R2 on glutathione-sepharose, cross-linked with dimethyl pimelimidate; 1 ml of 250 nM His6-GluN1 cytoplasmic domain with increasing amounts of ICAM-5 cytoplasmic domain, RT 1 h; bound His6-GluN1 by western blotting, band intensities fitted to an exponential decay ….

Take “ICAM-5 cytoplasmic domain (WT) (from UniProt Q9UMF0) K857A; K858A”: the response turned out to be 0.035 A492 with GST-α-actinin R1; 0.015 A492 in test [1]; 0.02 A492 in the test with GST-α-actinin R3; 0.022 A492 in the test with GST-α-actinin R4; 0.015 A492 in the test with GST-α-actinin R2 [2].
With “ICAM-5 cytoplasmic domain (WT) (from UniProt Q9UMF0 857-924) (domain or fragment)”, the IC50 with GST-α-actinin R2 [3] came to 55 nM.
